Test results taken from article PMC8529494, “KAT6A Acetylation of SMAD3 Regulates Myeloid‐Derived Suppressor Cell Recruitment, Metastasis, and Immunotherapy in Triple‐Negative Breast Cancer” (Advanced Science, 2021).

Target: T1, (His)6-TRIM24 (UniProt O15164 1-1050)
T1 construct: Tripartite motif-containing 24 (TRIM24); also called tripartite motif-containing 24; source: recombinant, purified
T1 sequence (looked up): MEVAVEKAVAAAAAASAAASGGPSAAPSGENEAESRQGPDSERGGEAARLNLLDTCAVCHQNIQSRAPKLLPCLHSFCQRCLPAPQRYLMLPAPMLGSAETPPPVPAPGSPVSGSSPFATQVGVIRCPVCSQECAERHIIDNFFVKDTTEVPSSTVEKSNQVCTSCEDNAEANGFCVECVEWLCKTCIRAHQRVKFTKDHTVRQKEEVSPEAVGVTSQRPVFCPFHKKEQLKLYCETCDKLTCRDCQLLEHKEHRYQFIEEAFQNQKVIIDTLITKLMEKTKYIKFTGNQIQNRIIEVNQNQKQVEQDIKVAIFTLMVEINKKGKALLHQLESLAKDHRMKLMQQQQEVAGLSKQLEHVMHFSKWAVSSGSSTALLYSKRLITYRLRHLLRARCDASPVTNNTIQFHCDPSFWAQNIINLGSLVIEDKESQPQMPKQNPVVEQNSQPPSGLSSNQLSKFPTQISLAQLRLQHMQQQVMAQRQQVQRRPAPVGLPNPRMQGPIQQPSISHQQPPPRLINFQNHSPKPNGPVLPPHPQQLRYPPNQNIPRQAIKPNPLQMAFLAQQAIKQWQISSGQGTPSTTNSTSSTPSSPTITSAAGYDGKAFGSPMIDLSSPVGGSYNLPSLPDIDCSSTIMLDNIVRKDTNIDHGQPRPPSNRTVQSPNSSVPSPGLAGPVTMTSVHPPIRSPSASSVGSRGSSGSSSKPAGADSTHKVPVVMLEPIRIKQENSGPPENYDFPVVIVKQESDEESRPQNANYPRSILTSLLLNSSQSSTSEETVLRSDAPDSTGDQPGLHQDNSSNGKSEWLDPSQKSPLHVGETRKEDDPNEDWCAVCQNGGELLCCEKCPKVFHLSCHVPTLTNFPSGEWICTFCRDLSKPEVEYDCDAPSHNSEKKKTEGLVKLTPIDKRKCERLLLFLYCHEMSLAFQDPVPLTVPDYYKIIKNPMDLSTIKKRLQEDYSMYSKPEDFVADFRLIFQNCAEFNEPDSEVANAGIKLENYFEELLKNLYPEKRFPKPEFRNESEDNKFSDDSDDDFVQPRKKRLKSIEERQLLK
Experiment: pull-down; GST pull-down with purified GST-SMAD3 and (His)6-TRIM24, western blot with anti-TRIM24 and anti-SMAD3
Details: both partners purified

B1: GST-SMAD3 (natural protein, UniProt P84022 1-425, looked up)
chain: MSSILPFTPPIVKRLLGWKKGEQNGQEEKWCEKAVKSLVKKLKKTGQLDELEKAITTQNVNTKCITIPRSLDGRLQVSHRKGLPHVIYCRLWRWPDLHSHHELRAMELCEFAFNMKKDEVCVNPYHYQRVETPVLPPVLVPRHTEIPAEFPPLDDYSHSIPENTNFPAGIEPQSNIPETPPPGYLSEDGETSDHQMNHSMDAGSPNLSPNPMSPAHNNLDLQPVTYCEPAFWCSISYYELNQRVGETFHASQPSMTVDGFTDPSNSERFCLGLLSNVNRNAAVELTRRHIGRGVRLYYIGGEVFAECLSDSAIFVQSPNCNQRYGWHPATVCKIPPGCNLKIFNNQEFAALLAQSVNQGFEAVYQLTRMCTIRMSFVKGWGAEYRRQTVTSTPCWIELHLNGPLQWLDKVLTQMGSPSIRCSSVS
notes: SMAD3; also called recombinant GST-SMAD3; source: recombinant, purified
binding result: binds
